The values that follow come from patent US20240279334A1 (AMBERSTONE BIOSCIENCES, published 2024).

Assay [1] addresses human CD3 on T cells (Jurkat reporter cells, human primary T cells) (human) (UniProt P07766). The experiment in a line: cell-based or functional assay.
For assay [2], the target named is T1, recombinant human CD3E (ECD) (human, UniProt P07766 23-126).
T1 construct: extracellular domain; This is the coated antigen of the ELISA; also called extracellular domain of human CD3E
The experiment in a line: ELISA with human CD3E; % Binding plotted against pH (6.0 to 7.4), relative to pH 6.0; Fab concentration not shown on the sheet. On the procedure:
(§1) The plates were then blocked with 200 μL ELISA assay diluents with BSA after discarding the coating solution and washing three times with washing buffer (pH-adjusted 1×PBS+0.05% Tween). […] The plates were washed three times with pH-adjusted 1×PBS buffer and incubated with horseradish peroxidase (HRP) conjugated with goat anti-human IgG Fc for about 30 minutes (min) to one hour. After washing three times, the bound HRP enzyme was detected by addition of 100 μL/well […] substrate (BioFX Laboratories, MD, USA) for about 1 to 5 min and then the detection of color was done based on 630 nm absorption. The pH-adjusted 1×PBS buffer of about pH 6.0, 6.1, 6.2, 6.3, 6.4, 6.5, 6.6, 6.7, 6.8, 6.9, 7.0, 7.1, 7.2, 7.3, 7.4, 7.5 or 7.6 can be based on a regular PBS buffer that is substantially the same as the well-known Cold Spring Harbor Lab's recipe which comprises 137 mM NaCl, 2.7 mM KCl, 10 mM Na₂HPO₄, 1.8 mM KH₂PO₄, and optionally 1 mM CaCl₂) and 0.5 mM MgCl₂, wherein the buffer's pH is adjusted using HCl or H₃PO₄. Alternatively, the pH-adjusted 1×PBS buffers can be based on a modified PBS recipe that comprises 118-146 mM NaCl, 2.7 mM KCl, 10 mM Na₂HPO₄, 1.8 mM KH₂PO₄, and optionally 1 mM CaCl₂) and 0.1-0.8 mM MgCl₂, iron (0-9 mM), sulfide (0.8-5 mM), and optionally further comprising one or more components selected from the following: 5-15 mM D-glucose, NaHCO₃(5-20 mM), 0.1 mM NEAA (non-essential amino acids), 2-20 mM lactic acid and 0.1-0.5% BSA, wherein the buffer's pH is adjusted using HCl or H₃PO₄.
On the technique in general: ELISA stands for enzyme-linked immunosorbent assay.

Assay [3] concerns the target T2, extracellular domain of cynomolgus monkey CD3E (cynomolgus monkey, UniProt Q95LI5 22-117).
T2 construct: extracellular domain; This is the coated antigen of the ELISA; also called cyno CD3
T2 sequence (looked up): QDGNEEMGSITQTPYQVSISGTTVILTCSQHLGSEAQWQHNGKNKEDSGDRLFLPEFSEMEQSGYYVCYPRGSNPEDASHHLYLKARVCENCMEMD
The experiment in a line: ELISA with monkey CD3E; % Binding plotted against pH (6.0 to 7.4), relative to pH 6.0; Fab concentration not shown on the sheet. As to the method: as §1, with “Alternatively, the pH-adjusted 1×PBS buffers can be based on a modified PBS recipe that comprises 118-146 mM NaCl, 2.7 mM KCl, 10 mM Na₂HPO₄, 1.8 mM KH₂PO₄, and optionally 1 mM CaCl₂) and 0.1-0.8 mM MgCl₂, iron (0-9 mM), sulfide (0.8-5 mM), and optionally further comprising one or more components selected from the following: 5-15 mM D-glucose, NaHCO₃(5-20 mM), 0.1 mM NEAA (non-essential amino acids), 2-20 mM lactic acid and 0.1-0.5% BSA, wherein the buffer's pH is adjusted using HCl or H₃PO₄.” left out

human CD3 on T cells (Jurkat reporter cells, human primary T cells) (human), sequence (P07766 23-207): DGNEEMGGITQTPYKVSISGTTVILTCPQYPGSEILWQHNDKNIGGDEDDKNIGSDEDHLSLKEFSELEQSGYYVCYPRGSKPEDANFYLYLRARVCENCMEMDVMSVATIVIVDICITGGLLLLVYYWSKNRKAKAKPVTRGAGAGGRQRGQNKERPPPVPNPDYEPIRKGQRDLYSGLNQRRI
T1 sequence (P07766 23-126): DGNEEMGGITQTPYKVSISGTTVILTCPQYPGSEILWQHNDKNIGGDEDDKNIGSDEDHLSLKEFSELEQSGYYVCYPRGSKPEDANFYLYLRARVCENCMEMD

B1: CD3(h10.v39)×TROP-2(RS7.v1) assembled in a human IgG1-Fc (Knobs-in-Holes) (bispecific antibody, not shown: a dimerising Fc or GST)
heavy: EVQLVQSGAEVKKPGASVKVSCKASGYTFTSYYTHWVRQAPGQGLEWIGWIYPGDFNTKFNEKFKGRVTLTADTSASTAYMELSSLRSEDTAVYYCARDHYGYYYFDYWGQGTLVTVSS
light: DIVMTQSPDSLAVSLGERATINCKSSQSLLNSRTRHNYLAWYQQKPGQPPKLLIYWATTRASGVPDRFSGSGSGTDFTLTISSLQAEDVAVYYCIQSYTGRTFGGGTKVEIK
VH: EVQLQQSGSELKKPGASVKVSCKASGYTFTNYGMNWVKQAPGQGLKWMGWINTYTGEPTYTDDFKGRFAFSLDTSVSTAYLQISSLKADDTAVYFCARGGFGSSYWYFDVWGQGSLVTVSS
VL: DIQLTQSPSSLSASVGDRVSITCKASQDVSIAVAWYQQKPGKAPKLLIYSASYRYTGVPDRFSGSGSGTDFTLTISSLQPEDFAVYYCQQHYITPLTFGAGTKVEIK
In assay [1], B1 showed a percent killing of MDA-MB-468 cells at the pH 6.6 ECmax dose, pH 7.4 of 16% and a percent killing of TROP-2-high MDA-MB-468 cells, pH 6.6 of 100%.

B2: CD3 (h10.v38)×TROP-2 (RS7.v1) hIgG1-Fc (KiH) (bispecific antibody, not shown: a dimerising Fc or GST)
heavy: EVQLVQSGAEVKKPGASVKVSCKASGYTFTSYYYHWVRQAPGQGLEWIGWIYPGDFNTKFNEKFKGRVTLTADTSASTAYMELSSLRSEDTAVYYCARDHYGYYYFDYWGQGTLVTVSS
light: DIVMTQSPDSLAVSLGERATINCKSSQSLLNSRTRHNYLAWYQQKPGQPPKLLIYWATTRASGVPDRFSGSGSGTDFTLTISSLQAEDVAVYYCIQSYTGRTFGGGTKVEIK
VH: EVQLQQSGSELKKPGASVKVSCKASGYTFTNYGMNWVKQAPGQGLKWMGWINTYTGEPTYTDDFKGRFAFSLDTSVSTAYLQISSLKADDTAVYFCARGGFGSSYWYFDVWGQGSLVTVSS
VL: DIQLTQSPSSLSASVGDRVSITCKASQDVSIAVAWYQQKPGKAPKLLIYSASYRYTGVPDRFSGSGSGTDFTLTISSLQPEDFAVYYCQQHYITPLTFGAGTKVEIK
With B2, in assay [1], the T cell mediated killing of DU-145 cells, EC50, pH 6.9 was found to be 144 nM; the T cell mediated killing of MDA-MB-468 cells, EC50, pH 6.6 is 0.3 nM; the T cell mediated killing of MDA-MB-468 cells, EC50, pH 7.0 turned out to be 9 nM; the T cell mediated killing of MDA-MB-468 cells, ECmax, pH 6.6 is 30 nM. The fold reduction of MDA-MB-468 killing potency with human PBMCs (E:T about 5.5:1), pH 7.4 against pH 6.6 in assay [1] was 80 fold.

B3: h10.v38 (Fab) (Fab, V domains shown)
VH: EVQLVQSGAEVKKPGASVKVSCKASGYTFTSYYYHWVRQAPGQGLEWIGWIYPGDFNTKFNEKFKGRVTLTADTSASTAYMELSSLRSEDTAVYYCARDHYGYYYFDYWGQGTLVTVSS
VL: DIVMTQSPDSLAVSLGERATINCKSSQSLLNSRTRHNYLAWYQQKPGQPPKLLIYWATTRASGVPDRFSGSGSGTDFTLTISSLQAEDVAVYYCIQSYTGRTFGGGTKVEIK
notes: Tested as a Fab
Consider B3, for which the binding result in assay [2] was “binds”.

B4: h10.v27 (Fab) (Fab, V domains shown)
VH: EVQLVQSGAEVKKPGASVKVSCKASGYTFTSYYYHWVRQAPGQGLEWIGWIYPGDFNTKFNEKFKGRVTLTADTSASTAYMELSSLRSEDTAVYYCARDHYGYYYFDYWGQGTLVTVSS
VL: DIVMTQSPDSLAVSLGERATINCKSSQSLLNSRTRHNYLAWYQQKPGQPPKLLIYWATTRDSGVPDRFSGSGSGTDFTLTISSLQAEDVAVYYCIQSYTGRTFGGGTKVEIK
notes: Tested as a Fab
With B4, the binding result in assay [2] is given as “binds”.

B5: h10.v1 (Fab) (Fab, V domains shown)
VH: EVQLVQSGAEVKKPGASVKVSCKASGYTFTSYYVHWVRQAPGQGLEWIGWIYPGDFNTKFNEKFKGRVTLTADTSASTAYMELSSLRSEDTAVYYCARDAYSYYYFDYWGQGTLVTVSS
VL: DIVMTQSPDSLAVSLGERATINCKSSQSLLNSRTRKNYLAWYQQKPGQPPKLLIYWATTRDSGVPDRFSGSGSGTDFTLTISSLQAEDVAVYYCIQSYTTRTFGGGTKVEIK
notes: Tested as a Fab; the Fab constant domains are not; also called non-pH-selective conventional control clone; conventional anti-CD3 control antibody
Regarding B5, the binding result in assay [2] and in assay [3] was “binds” in each case.

B6: h10.v23 (Fab) (Fab, V domains shown)
VH: EVQLVQSGAEVKKPGASVKVSCKASGYTFTSYYVHWVRQAPGQGLEWIGWIYPGDFNTKFNEKFKGRVTLTADTSASTAYMELSSLRSEDTAVYYCARDHYGYYYFDYWGQGTLVTVSS
VL: DIVMTQSPDSLAVSLGERATINCKSSQSLLNSRTRHNYLAWYQQKPGQPPKLLIYWATTRASGVPDRFSGSGSGTDFTLTISSLQAEDVAVYYCIQSYTGRTFGGGTKVEIK
notes: Purified and used as a Fab; also called anti-CD3 clone h10.v23
For the molecule B6, in assay [2], the binding result is reported as “binds”.

B7: h10.v49 (Fab) (Fab, V domains shown)
VH: EVQLVQSGAEVKKPGASVKVSCKASGYTFTSYYYHWVRQAPGQGLEWIGWIYPGDFNTKFNEKFKGRVTLTADTSASTAYMELSSLRSEDTAVYYCARDHYHQYYFDYWGQGTLVTVSS
VL: DIVMTQSPDSLAVSLGERATINCKSSQSLLNSRTRHNYLAWYQQKPGQPPKLLIYWATTRASGVPDRFSGSGSGTDFTLTISSLQAEDVAVYYCIQSYTGRTFGGGTKVEIK
notes: Tested as a Fab
In the case of B7, the binding result in assay [2] is on record as “binds”.
